Test results: paper PMC9317960 (Biochemical Journal, 2022)

T1: Human Scribble (SCRIB) PDZ3 domain (1002-1094) (human, UniProt Q14160 1002-1094)
T1 sequence (looked up): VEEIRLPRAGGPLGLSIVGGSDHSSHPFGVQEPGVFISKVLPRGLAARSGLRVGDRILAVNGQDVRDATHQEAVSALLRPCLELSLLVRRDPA


Experiments:
[1] = tested on: a wide range of different PDZ domains; settings: cited from earlier work
[2] = target: T1, Human Scribble (SCRIB) PDZ3 domain …; test: ITC; settings: both partners purified

Molecule | affinity towards PDZ domains, in words [1] | Kd [2] [µM] | dH [2] [kcal/mol] | stoichiometry N [2]
RSWFETWV [Superpeptide, used as a positive control] | affinity towards a wide range of different PDZ domains | – | – | –
LRLESSII [TBEV NS5_CTN peptide (C-terminal PBM of NS5)] | – | 18.4 | -1.1 | 1
